This passage reports binding result, reduction of the GFP signal in HeLa cells coexpressing the Fbox-Nb construct and GFP-Miro1 (targeted degradation) and decrease of the anti-Miro1 IF signal in HeLa cells 24 h after transfection of the Fbox-Nb (targeted degradation of endogenous Miro1; Fbox-NR control less than ∼4%) results from PMC8960383, “A Nanobody-Based Toolset to Monitor and Modify the Mitochondrial GTPase Miro1” (Frontiers in Molecular Biosciences, 2022).

For assay [1], the target named is T1, eGFP-cGTPase-TMD (Homo sapiens, UniProt Q8IXI2).
T1 construct: human Miro1 isoform 1 (UniProtKB Q8IXI2-1), C-terminal GTPase domain with the transmembrane domain; made from the GFP-Miro1 plasmid by site directed mutagenesis; also called C-terminal GTPase domain of Miro1; source: HEK293, transfected, in lysate; HeLa, transfected, in living cells; not shown: GFP, N-terminal, kept
The experiment in a line: pull-down; Nbs coupled to NHS-Sepharose (nanotraps) incubated 16 h at 4°C with the soluble fraction of HEK293 cells transiently expressing GFP-Miro1, GFP-tagged Miro1 deletion constructs or GFP (lysis buffer with 1% Triton X-100); immunoblot of bound fractions with anti-GFP and anti-GAPDH. The following applies: one partner purified.

In assay [2] the target is GFP-Miro1 (human) (UniProt Q8IXI2).
The target of assay [3] is endogenous Miro1 (human (endogenous in HEK293 and HeLa)) (UniProt Q8IXI2).
In assay [4] the target is T2, Miro1 isoform 2 (Homo sapiens (endogenous, HEK293), UniProt Q8IXI2-2).
T2 construct: endogenous human Miro1 isoform 2, identified by mass spectrometry (search against the Uniprot Homo sapiens database; one unique peptide); source: endogenous, HEK293 lysate
The experiment in a line: affinity purification with mass spectrometry; mono- and bivalent M41 and M114 nanotraps incubated with HEK293 lysate, compared to control nanotraps; three technical replicates; label-free quantification, iBAQ. The following applies: one partner purified.

Assay [5] deals with T3, Miro1 isoform 3 (Homo sapiens (endogenous, HEK293), UniProt Q8IXI2-3).
T3 construct: endogenous human Miro1 isoform 3, identified by mass spectrometry (search against the Uniprot Homo sapiens database; 31 razor peptides); source: endogenous, HEK293 lysate
The description is as above. The following applies: one partner purified.

Assay [6] has as its target T1, eGFP-cGTPase-TMD. Nature of the assay: live-cell fluorescence imaging (relocalisation of the chromobody); TagRFP chromobodies transiently co-expressed with GFP-Miro1 or GFP-tagged Miro1 deletion constructs in HeLa cells. The following applies: partners not purified.

T1 sequence (Q8IXI2 whole entry, looked up, the tested form may be a part, canonical isoform): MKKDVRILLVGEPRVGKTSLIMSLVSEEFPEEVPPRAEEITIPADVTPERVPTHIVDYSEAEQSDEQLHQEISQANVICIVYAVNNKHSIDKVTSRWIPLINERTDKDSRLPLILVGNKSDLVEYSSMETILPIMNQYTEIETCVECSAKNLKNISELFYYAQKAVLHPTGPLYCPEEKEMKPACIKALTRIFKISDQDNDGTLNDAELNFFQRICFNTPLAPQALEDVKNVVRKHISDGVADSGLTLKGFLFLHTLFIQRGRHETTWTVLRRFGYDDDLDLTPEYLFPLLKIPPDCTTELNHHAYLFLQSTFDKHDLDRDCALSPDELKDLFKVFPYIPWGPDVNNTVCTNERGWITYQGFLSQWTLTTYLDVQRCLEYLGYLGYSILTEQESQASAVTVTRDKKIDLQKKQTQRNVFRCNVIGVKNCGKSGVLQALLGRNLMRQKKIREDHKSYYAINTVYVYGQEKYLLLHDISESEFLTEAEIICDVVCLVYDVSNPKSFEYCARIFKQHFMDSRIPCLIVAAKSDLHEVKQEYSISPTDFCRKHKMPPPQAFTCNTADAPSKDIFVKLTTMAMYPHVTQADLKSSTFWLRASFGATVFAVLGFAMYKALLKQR
Chain of endogenous Miro1 (human (endogenous in HEK293 and HeLa)) (Q8IXI2 whole entry, canonical isoform): as the sequence (Q8IXI2 whole entry, looked up, the tested form may be a part, canonical isoform) above
Chain of GFP-Miro1 (human) (Q8IXI2 whole entry): as the sequence (Q8IXI2 whole entry, looked up, the tested form may be a part, canonical isoform) above
T3 sequence (Q8IXI2 other isoform, or with tags, fused parts or gaps): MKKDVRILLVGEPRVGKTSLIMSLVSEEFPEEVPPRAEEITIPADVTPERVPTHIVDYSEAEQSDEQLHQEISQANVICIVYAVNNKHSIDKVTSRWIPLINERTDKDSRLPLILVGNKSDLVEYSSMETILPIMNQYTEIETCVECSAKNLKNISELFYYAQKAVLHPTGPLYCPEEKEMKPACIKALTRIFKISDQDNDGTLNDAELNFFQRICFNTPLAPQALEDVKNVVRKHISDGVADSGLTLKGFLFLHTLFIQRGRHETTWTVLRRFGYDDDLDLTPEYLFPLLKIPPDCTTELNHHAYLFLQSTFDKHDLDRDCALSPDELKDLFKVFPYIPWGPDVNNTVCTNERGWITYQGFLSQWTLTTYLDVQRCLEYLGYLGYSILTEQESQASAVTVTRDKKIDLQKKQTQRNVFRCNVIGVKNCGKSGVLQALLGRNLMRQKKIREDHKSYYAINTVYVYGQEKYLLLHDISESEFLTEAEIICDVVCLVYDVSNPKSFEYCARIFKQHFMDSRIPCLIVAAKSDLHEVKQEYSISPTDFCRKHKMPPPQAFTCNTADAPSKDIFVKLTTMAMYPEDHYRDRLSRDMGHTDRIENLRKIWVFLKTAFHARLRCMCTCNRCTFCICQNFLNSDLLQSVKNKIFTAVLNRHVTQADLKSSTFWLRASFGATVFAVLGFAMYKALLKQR
T2 sequence (Q8IXI2 other isoform, or with tags, fused parts or gaps): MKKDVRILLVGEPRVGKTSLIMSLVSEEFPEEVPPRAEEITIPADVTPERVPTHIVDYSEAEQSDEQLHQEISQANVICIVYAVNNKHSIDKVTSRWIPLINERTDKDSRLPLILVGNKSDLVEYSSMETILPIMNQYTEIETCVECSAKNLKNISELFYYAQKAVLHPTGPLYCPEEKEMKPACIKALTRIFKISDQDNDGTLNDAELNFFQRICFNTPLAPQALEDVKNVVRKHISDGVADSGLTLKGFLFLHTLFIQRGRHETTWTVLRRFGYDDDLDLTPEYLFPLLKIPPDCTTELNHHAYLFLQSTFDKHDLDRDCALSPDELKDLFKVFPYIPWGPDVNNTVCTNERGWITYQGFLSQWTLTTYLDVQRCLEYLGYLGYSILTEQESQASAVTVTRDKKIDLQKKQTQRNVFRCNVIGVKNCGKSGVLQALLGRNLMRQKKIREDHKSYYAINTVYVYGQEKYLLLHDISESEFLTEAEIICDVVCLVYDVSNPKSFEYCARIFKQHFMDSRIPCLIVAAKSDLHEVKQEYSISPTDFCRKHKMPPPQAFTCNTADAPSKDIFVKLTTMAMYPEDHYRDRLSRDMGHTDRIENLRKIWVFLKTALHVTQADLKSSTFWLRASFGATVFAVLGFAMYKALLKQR

B1: Miro1-specific nanobody M189 (VHH)
VHH: EVQLVESGGGLVQPGGSLRLSCTASGFPVSSAAMSWARQSPGKELEWVSGIYTDGSADYADSLKGRFTISRDDVENTINLQMNNLKPEDTAIYYCNANFFEGSWYDYWGQGSPVTVSS
notes: Cloned into pHEN6C; also called M189-Nb; M189 nanotrap; source: E. coli, purified (IMAC, SEC)
For B1, the binding result in assay [1] was “binds”.

B2: Fbox-M114 (VHH)
VHH: EVQLQESGGGLVQPGGSLRLSCTASGFPVSSAAMSWARQSPGKELEWVSGIYTDGSADYADSLKGRFTISRDDVENTINLQMNSLKPEDTAVYYCKTDWWAGPSGYVAVWGQGTLVTVSS
On to B2, for which the reduction of the GFP signal in HeLa cells coexpressing the Fbox-Nb construct and GFP-Miro1 (targeted degradation) in assay [2] was found to be 80%. The molecule also displayed a decrease of the anti-Miro1 IF signal in HeLa cells 24 h after transfection of the Fbox-Nb (targeted degradation of endogenous Miro1; Fbox-NR control less than ∼4%) in assay [3] of 30%.

B3: Miro1-specific nanobody M114 (VHH)
VHH: EVQLQESGGGLVQPGGSLRLSCTASGFPVSSAAMSWARQSPGKELEWVSGIYTDGSADYADSLKGRFTISRDDVENTINLQMNSLKPEDTAVYYCKTDWWAGPSGYVAVWGQGTLVTVSS
notes: Cloned into pHEN6C; also called M114-Nb; M114 nanotrap; source: E. coli, purified (IMAC, SEC)
B3: the binding result in assay [4], in assay [5] and in assay [1] was “binds” each time.

B4: M114 chromobody (VHH)
VHH: EVQLQESGGGLVQPGGSLRLSCTASGFPVSSAAMSWARQSPGKELEWVSGIYTDGSADYADSLKGRFTISRDDVENTINLQMNSLKPEDTAVYYCKTDWWAGPSGYVAVWGQGTLVTVSS
notes: as the VHH of m12 (M114); cloned into the plasmid described as PCNA-chromobody (Panza et al., 2015); also called M114-Cb; M114-CB; source: HeLa, transfected, in living cells
As for B4, in assay [6], the binding result is “binds”.

B5: Miro1-specific nanobody M85 (VHH)
VHH: DVQLVESGGGKVQSGGSLRLSCAASGSKLDDYSIGWFRQAPGKGREGISCITMKTGSFEYVDSVKGRFTISADNAKNTVHLQMNNLKPEDTGIYYCAALRSRGLFCVTSPYEYDLWGQGSPVTVSS
notes: Cloned into pHEN6C; also called M85-Nb; M85 nanotrap; source: E. coli, purified (IMAC, SEC)
Regarding B5, the binding result in assay [1] is recorded as “binds”.

B6: M85 chromobody (VHH)
VHH: DVQLVESGGGKVQSGGSLRLSCAASGSKLDDYSIGWFRQAPGKGREGISCITMKTGSFEYVDSVKGRFTISADNAKNTVHLQMNNLKPEDTGIYYCAALRSRGLFCVTSPYEYDLWGQGSPVTVSS
notes: as the VHH of m11 (M85); cloned into the plasmid described as PCNA-chromobody (Panza et al., 2015); also called M85-Cb; source: HeLa, transfected, in living cells
On to B6, for which the binding result in assay [6] is given as “binds”.

B7: Fbox-M41 (VHH)
VHH: EVQLVESGGGLVHPGGSLRISCAASGFSFNSSAMSWARQAPGKGLEWVSGIQADGTTGYAHSVKGRFNISRDNAKNIVYLQMSSLKPEDSAVYYCAKEGWSTVVFGSRDYWGQGTQVTVSS
In turn, B7 registered a reduction of the GFP signal in HeLa cells coexpressing the Fbox-Nb construct and GFP-Miro1 (targeted degradation) in assay [2] of 50%. The molecule further yielded a decrease of the anti-Miro1 IF signal in HeLa cells 24 h after transfection of the Fbox-Nb (targeted degradation of endogenous Miro1; Fbox-NR control less than ∼4%) in assay [3] of 16%.

B8: M41 chromobody (VHH)
VHH: EVQLVESGGGLVHPGGSLRISCAASGFSFNSSAMSWARQAPGKGLEWVSGIQADGTTGYAHSVKGRFNISRDNAKNIVYLQMSSLKPEDSAVYYCAKEGWSTVVFGSRDYWGQGTQVTVSS
notes: as the VHH of m10 (M41); cloned into the plasmid described as PCNA-chromobody (Panza et al., 2015); also called M41-Cb; source: HeLa, transfected, in living cells
Turning to B8, in assay [6], the binding result is on record as “binds”.

B9: Miro1-specific nanobody M41 (VHH)
VHH: EVQLVESGGGLVHPGGSLRISCAASGFSFNSSAMSWARQAPGKGLEWVSGIQADGTTGYAHSVKGRFNISRDNAKNIVYLQMSSLKPEDSAVYYCAKEGWSTVVFGSRDYWGQGTQVTVSS
notes: Cloned into pHEN6C; also called M41-Nb; M41 nanotrap; source: E. coli, purified (IMAC, SEC)
Consider B9, for which, in assay [1], the binding result is listed as “binds”.

B10: Miro1-specific nanobody M11 (VHH)
VHH: QVQLVESGGGSVQPGGSLRLSCAASGFSFSSNVMSWARQAPGKGLEWVSGIYVDGRTHYADSVKGRFTISRDNAKNTVYLQMNSLKPEDTAVYYCAAAGDLSGYSFSPYDYDYWGQGTQVTVSS
notes: Cloned into pHEN6C; also called M11-Nb; M11 nanotrap; source: E. coli, purified (IMAC, SEC)
As to B10, the binding result in assay [1] was “binds”.
